We go through 1 substance from paper PMC3792966.

The target in this test is SspA of F. tularensis SCHU S4 fused to the Zif protein (F. tularensis SCHU S4). Kind of test: two-hybrid.

Consider “MglA of F. tularensis SCHU S4 fused to the ω subunit of E. coli RNA polymerase (natural protein)”, for which the β-galactosidase activity in strain AW23 was 2400 AU and the β-galactosidase activity in strain AW24 was found to be 26000 AU.
